The text below walks through data of patent US20210163535A1 (KYUNGPOOK NATIONAL UNIVERSITY INDUSTRY ACADEMIC COOPERATION …, published 2021).

No end group written: not given here.

This assay addresses T1, wild-type CD44 (UniProt P16070-12 21-361, limits assumed).
T1 construct: The isoform is not defined beyond 'wild-type'
The experiment in a line: pull-down of cell lysate with biotinylated peptide on avidin beads, Western blot.

T1 sequence (P16070 other isoform, or with tags, fused parts or gaps limits assumed): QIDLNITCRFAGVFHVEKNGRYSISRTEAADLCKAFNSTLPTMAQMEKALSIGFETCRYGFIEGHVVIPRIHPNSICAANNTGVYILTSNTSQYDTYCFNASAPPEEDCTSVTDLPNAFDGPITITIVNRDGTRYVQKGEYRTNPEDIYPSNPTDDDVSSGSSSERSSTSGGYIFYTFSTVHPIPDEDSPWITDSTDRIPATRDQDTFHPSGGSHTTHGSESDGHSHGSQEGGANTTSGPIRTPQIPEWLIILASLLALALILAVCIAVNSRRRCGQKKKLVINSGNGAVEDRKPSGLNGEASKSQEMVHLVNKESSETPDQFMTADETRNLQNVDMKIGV

B1: v6Pep-1 (peptide)
peptide: CNLNTIDTC
modifications: cysteine pairing not given here; also: FITC-labelled or biotinylated, site of label not given here
notes: Selected from a CX7C phage display library; also called clone-1; FITC-v6Pep-1
B1: the binding result is given as “no binding”.

B2: v6Pep-2 (peptide)
peptide: CNEWQLKSC
modifications: cysteine pairing not given here; also: FITC-labelled or biotinylated, site of label not given here
notes: Selected from a CX7C phage display library; also called clone-2; FITC-v6Pep-2
As to B2, the binding result is “no binding”.
